Data from patent publication US20150344570A1 (published 2015).

B1: GpH7-B3 variant K326_10E/GpL16-k0 (antibody, human IgG1, kappa)
heavy: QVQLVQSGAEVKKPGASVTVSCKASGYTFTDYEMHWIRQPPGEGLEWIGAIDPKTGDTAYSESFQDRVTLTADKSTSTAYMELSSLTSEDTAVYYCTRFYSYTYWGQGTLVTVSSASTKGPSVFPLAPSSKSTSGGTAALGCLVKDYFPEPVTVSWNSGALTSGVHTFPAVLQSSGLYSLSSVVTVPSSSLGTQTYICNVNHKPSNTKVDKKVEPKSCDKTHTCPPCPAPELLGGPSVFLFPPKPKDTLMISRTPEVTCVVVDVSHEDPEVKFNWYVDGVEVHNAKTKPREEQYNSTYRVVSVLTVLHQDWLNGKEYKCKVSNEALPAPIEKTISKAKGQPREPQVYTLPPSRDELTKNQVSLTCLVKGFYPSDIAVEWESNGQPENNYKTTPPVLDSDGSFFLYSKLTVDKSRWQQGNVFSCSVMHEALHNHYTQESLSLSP
light: DIVMTQSPLSLPVTPGEPASISCQASESLVHSNRNTYLHWYLQKPGQSPQLLIYKVSNRFSGVPDRFSGSGSGTDFTLKISRVEAEDVGVYYCSQNTHVPPTFGQGTKVEIERTVAAPSVFIFPPSDEQLKSGTASVVCLLNNFYPREAKVQWKVDNALQSGNSQESVTEQDSKDSTYSLSSTLTLSKADYEKHKVYACEVTHQGLSSPVTKSFNRGEC
notes: Alteration in both H chains; also called Ho Ab K326_10E
B2: GpH7-B3 variant S324_10E/GpL16-k0 (antibody, human IgG1, kappa)
heavy: not shown
light: B1 light
notes: Alteration in both H chains; also called Ho Ab S324_10E
B3: GpH7-B3 variant K334_18N/GpL16-k0 (antibody, human IgG1, kappa)
heavy: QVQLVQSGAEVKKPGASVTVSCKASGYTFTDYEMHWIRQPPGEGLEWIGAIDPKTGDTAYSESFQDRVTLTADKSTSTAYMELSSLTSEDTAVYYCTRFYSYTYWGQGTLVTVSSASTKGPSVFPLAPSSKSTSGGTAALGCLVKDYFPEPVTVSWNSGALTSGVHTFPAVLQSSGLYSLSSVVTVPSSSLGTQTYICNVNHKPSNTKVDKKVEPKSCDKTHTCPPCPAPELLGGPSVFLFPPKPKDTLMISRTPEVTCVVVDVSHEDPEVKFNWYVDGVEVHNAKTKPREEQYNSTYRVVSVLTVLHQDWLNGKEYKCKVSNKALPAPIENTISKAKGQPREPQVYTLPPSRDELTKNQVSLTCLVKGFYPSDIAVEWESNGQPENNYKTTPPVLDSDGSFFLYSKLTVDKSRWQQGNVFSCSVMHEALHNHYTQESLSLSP
light: B1 light
notes: Alteration in both H chains; also called Ho Ab K334_18N
B4: GpH7-B3 variant S337_16H/GpL16-k0 (antibody, human IgG1, kappa)
heavy: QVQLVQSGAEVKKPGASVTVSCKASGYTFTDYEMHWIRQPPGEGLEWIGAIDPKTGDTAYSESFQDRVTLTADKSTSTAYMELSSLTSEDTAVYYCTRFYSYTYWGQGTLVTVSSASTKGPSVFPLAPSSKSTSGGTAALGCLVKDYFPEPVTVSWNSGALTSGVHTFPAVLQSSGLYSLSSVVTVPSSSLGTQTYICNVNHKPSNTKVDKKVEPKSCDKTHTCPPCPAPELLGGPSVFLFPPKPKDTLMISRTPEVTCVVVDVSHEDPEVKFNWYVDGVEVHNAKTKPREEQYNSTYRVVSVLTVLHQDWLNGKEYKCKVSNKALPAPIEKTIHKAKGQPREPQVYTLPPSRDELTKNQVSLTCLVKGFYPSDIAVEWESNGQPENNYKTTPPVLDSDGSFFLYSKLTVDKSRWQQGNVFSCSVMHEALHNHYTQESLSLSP
light: B1 light
notes: Alteration in both H chains; also called Ho Ab S337_16H
B5: GpH7-B3 variant S267_14T/GpL16-k0 (antibody, human IgG1, kappa)
heavy: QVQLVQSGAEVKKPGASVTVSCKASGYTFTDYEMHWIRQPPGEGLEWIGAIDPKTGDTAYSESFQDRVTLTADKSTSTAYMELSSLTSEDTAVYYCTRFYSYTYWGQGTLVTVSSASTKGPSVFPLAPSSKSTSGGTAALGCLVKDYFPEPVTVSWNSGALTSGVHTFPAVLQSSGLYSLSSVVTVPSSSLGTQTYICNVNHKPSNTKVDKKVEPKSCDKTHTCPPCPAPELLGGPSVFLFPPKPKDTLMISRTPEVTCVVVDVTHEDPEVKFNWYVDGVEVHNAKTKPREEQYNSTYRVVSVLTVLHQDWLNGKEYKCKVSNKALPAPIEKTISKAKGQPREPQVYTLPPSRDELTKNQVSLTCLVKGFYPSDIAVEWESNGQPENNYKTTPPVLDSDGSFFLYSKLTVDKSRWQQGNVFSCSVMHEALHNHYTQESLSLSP
light: B1 light
notes: Alteration in both H chains; also called Ho Ab S267_14T
B6: GpH7-B3 variant T335_02A/GpL16-k0 (antibody, human IgG1, kappa)
heavy: not shown
light: B1 light
notes: Alteration in both H chains; also called Ho Ab T335_02A
B7: GpH7-B3 variant P271_01G/GpL16-k0 (antibody, human IgG1, kappa)
heavy: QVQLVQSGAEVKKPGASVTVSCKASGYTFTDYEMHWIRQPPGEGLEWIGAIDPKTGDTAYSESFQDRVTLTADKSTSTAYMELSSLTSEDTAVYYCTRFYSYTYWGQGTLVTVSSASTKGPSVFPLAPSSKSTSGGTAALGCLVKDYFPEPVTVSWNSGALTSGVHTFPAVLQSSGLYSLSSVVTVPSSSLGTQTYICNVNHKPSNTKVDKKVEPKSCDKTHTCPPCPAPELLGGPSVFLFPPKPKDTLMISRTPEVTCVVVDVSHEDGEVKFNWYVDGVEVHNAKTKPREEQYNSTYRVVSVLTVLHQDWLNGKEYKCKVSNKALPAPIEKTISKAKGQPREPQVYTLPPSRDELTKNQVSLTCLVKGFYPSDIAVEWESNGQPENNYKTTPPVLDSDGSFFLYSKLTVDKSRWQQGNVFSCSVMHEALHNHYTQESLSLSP
light: B1 light
notes: Alteration in both H chains; also called Ho Ab P271_01G
B8: GpH7-B3 variant Y296_07I/GpL16-k0 (antibody, human IgG1, kappa)
heavy: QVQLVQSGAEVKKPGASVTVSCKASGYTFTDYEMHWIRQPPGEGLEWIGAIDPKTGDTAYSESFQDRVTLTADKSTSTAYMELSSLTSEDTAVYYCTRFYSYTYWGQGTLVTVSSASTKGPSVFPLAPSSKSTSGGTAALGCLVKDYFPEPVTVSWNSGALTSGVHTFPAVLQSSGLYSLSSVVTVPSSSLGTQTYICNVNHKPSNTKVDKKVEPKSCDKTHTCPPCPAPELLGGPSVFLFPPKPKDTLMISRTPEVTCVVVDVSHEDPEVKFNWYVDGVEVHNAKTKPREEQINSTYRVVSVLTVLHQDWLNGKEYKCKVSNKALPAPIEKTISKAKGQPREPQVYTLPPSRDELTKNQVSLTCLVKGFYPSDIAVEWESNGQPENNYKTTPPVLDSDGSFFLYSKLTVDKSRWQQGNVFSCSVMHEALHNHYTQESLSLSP
light: B1 light
notes: Alteration in both H chains; also called Ho Ab Y296_07I
B9: GpH7-B3 variant P271_19Q/GpL16-k0 (antibody, human IgG1, kappa)
heavy: not shown
light: B1 light
notes: Alteration in both H chains; also called Ho Ab P271_19Q
B10: GpH7-B3 variant Y300_07I/GpL16-k0 (antibody, human IgG1, kappa)
heavy: not shown
light: B1 light
notes: Alteration in both H chains; also called Ho Ab Y300_07I
B11: GpH7-B3 variant K326_20W/GpL16-k0 (antibody, human IgG1, kappa)
heavy: not shown
light: B1 light
notes: Alteration in both H chains; also called Ho Ab K326_20W
B12: GpH7-B3 variant K334_13S/GpL16-k0 (antibody, human IgG1, kappa)
heavy: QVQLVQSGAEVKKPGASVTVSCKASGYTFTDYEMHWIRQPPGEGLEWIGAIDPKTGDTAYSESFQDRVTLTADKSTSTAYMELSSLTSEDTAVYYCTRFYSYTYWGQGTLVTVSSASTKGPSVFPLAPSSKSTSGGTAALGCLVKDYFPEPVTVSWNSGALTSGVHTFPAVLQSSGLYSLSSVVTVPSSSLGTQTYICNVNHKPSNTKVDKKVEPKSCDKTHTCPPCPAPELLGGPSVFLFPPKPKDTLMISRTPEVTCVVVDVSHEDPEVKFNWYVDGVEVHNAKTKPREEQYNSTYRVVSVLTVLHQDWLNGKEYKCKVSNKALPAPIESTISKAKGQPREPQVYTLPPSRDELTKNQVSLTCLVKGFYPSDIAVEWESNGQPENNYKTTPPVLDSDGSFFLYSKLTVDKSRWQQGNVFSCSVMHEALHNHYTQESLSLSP
light: B1 light
notes: Alteration in both H chains; also called Ho Ab K334_13S
B13: GpH7-B3 variant S324_09D/GpL16-k0 (antibody, human IgG1, kappa)
heavy: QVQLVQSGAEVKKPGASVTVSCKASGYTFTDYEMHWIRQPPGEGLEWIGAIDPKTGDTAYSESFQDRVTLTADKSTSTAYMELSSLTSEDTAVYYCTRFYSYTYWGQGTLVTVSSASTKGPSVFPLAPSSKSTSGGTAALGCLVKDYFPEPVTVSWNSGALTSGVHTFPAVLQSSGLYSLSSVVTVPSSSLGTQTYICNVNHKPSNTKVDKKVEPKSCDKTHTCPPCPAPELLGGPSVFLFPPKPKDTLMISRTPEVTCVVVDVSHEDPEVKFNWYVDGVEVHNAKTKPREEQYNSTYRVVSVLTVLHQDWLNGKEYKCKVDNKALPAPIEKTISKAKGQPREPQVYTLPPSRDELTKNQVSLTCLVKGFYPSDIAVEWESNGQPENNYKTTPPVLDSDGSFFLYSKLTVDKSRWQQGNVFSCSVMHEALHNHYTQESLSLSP
light: B1 light
notes: Alteration in both H chains; also called Ho Ab S324_09D
B14: GpH7-B3 variant S267_19Q/GpL16-k0 (antibody, human IgG1, kappa)
heavy: not shown
light: B1 light
notes: Alteration in both H chains; also called Ho Ab S267_19Q
B15: GpH7-B3 variant K334_14T/GpL16-k0 (antibody, human IgG1, kappa)
heavy: not shown
light: B1 light
notes: Alteration in both H chains; also called Ho Ab K334_14T
B16: GpH7-B3 variant S267_10E/GpL16-k0 (antibody, human IgG1, kappa)
heavy: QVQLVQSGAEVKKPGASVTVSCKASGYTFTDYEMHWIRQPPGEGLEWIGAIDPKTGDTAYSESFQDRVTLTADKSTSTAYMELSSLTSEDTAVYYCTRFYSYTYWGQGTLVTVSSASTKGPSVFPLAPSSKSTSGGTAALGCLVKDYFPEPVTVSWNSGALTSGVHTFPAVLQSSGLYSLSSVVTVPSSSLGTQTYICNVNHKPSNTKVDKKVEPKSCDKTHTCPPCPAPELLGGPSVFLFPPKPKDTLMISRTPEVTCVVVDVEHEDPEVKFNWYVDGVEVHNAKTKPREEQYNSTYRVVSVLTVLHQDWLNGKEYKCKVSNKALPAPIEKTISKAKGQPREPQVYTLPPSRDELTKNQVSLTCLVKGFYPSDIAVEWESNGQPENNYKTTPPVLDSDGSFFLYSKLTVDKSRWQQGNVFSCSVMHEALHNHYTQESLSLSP
light: B1 light
notes: Alteration in both H chains; also called Ho Ab S267_10E
B17: GpH7-B3 variant P271_08L/GpL16-k0 (antibody, human IgG1, kappa)
heavy: not shown
light: B1 light
notes: Alteration in both H chains; also called Ho Ab P271_08L
B18: GpH7-B3 variant K334_08L/GpL16-k0 (antibody, human IgG1, kappa)
heavy: not shown
light: B1 light
notes: Alteration in both H chains; also called Ho Ab K334_08L
B19: GpH7-B3 variant K334_16H/GpL16-k0 (antibody, human IgG1, kappa)
heavy: not shown
light: B1 light
notes: Alteration in both H chains; also called Ho Ab K334_16H
B20: GpH7-B3 variant K334_07I/GpL16-k0 (antibody, human IgG1, kappa)
heavy: not shown
light: B1 light
notes: Alteration in both H chains; also called Ho Ab K334_07I
B21: GpH7-B3 variant K334_05P/GpL16-k0 (antibody, human IgG1, kappa)
heavy: not shown
light: B1 light
notes: Alteration in both H chains; also called Ho Ab K334_05P
B22: GpH7-B3 variant S239_10E/GpL16-k0 (antibody, human IgG1, kappa)
heavy: not shown
light: B1 light
notes: Alteration in both H chains; also called Ho Ab S239_10E
B23: GpH7-B3 variant S267_06M/GpL16-k0 (antibody, human IgG1, kappa)
heavy: not shown
light: B1 light
notes: Alteration in both H chains; also called Ho Ab S267_06M
B24: GpH7-B3 variant P271_18N/GpL16-k0 (antibody, human IgG1, kappa)
heavy: not shown
light: B1 light
notes: Alteration in both H chains; also called Ho Ab P271_18N
B25: GpH7-B3 variant K334_04F/GpL16-k0 (antibody, human IgG1, kappa)
heavy: not shown
light: B1 light
notes: Alteration in both H chains; also called Ho Ab K334_04F
B26: GpH7-B3 variant Y300_16H/GpL16-k0 (antibody, human IgG1, kappa)
heavy: not shown
light: B1 light
notes: Alteration in both H chains; also called Ho Ab Y300_16H
B27: GpH7-B3 variant S337_18N/GpL16-k0 (antibody, human IgG1, kappa)
heavy: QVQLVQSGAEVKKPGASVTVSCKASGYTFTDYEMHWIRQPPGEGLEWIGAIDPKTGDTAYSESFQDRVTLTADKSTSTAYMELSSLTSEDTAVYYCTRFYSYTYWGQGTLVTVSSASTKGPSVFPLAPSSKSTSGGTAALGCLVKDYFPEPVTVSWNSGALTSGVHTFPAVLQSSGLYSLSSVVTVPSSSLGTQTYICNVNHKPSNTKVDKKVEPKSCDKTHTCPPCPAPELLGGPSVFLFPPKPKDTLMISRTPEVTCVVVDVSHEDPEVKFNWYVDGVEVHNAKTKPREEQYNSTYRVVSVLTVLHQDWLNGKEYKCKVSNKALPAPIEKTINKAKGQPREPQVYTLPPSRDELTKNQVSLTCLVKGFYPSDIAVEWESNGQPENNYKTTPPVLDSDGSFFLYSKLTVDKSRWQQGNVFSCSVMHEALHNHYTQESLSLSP
light: B1 light
notes: Alteration in both H chains; also called Ho Ab S337_18N
B28: GpH7-B3 variant Y296_02A/GpL16-k0 (antibody, human IgG1, kappa)
heavy: not shown
light: B1 light
notes: Alteration in both H chains; also called Ho Ab Y296_02A
B29: GpH7-B3 variant S298_09D/GpL16-k0 (antibody, human IgG1, kappa)
heavy: not shown
light: B1 light
notes: Alteration in both H chains; also called Ho Ab S298_09D
B30: GpH7-B3 variant Q295_12R/GpL16-k0 (antibody, human IgG1, kappa)
heavy: not shown
light: B1 light
notes: Alteration in both H chains; also called Ho Ab Q295_12R

What follows are binders tested against T1, FcγRIa (human, UniProt P12314 16-292) (assay: SPR (Biacore), relative binding; control HoCon Ab GpH7-B3/GpL16-k0).
T1 construct: extracellular domain; also called FcgRI; FcgRIa; not shown: His tag attached to the C terminus
T1 sequence (P12314 16-292): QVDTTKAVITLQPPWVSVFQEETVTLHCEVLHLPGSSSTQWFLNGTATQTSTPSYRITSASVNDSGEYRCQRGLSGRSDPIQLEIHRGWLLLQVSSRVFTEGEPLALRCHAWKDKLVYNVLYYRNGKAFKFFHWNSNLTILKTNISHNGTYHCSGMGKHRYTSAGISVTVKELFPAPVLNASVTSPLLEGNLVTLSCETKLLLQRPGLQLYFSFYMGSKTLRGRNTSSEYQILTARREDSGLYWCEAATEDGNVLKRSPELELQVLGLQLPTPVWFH

Row | Ho/Con_1a | Binder
1 | 105 % of control (=100) | B1
2 | 106 % of control (=100) | B2
3 | 108 % of control (=100) | B3
4 | 105 % of control (=100) | B4
5 | 107 % of control (=100) | B5
6 | 105 % of control (=100) | B6
7 | 106 % of control (=100) | B7
8 | 106 % of control (=100) | B8
9 | 104 % of control (=100) | B9
10 | 109 % of control (=100) | B10
11 | 104 % of control (=100) | B11
12 | 106 % of control (=100) | B12
13 | 106 % of control (=100) | B13
14 | 104 % of control (=100) | B14
15 | 106 % of control (=100) | B15
16 | 107 % of control (=100) | B16
17 | 103 % of control (=100) | B17
18 | 108 % of control (=100) | B18
19 | 106 % of control (=100) | B19
20 | 107 % of control (=100) | B20
21 | 106 % of control (=100) | B21
22 | 106 % of control (=100) | B22
23 | 106 % of control (=100) | B23
24 | 103 % of control (=100) | B24
25 | 106 % of control (=100) | B25
26 | 111 % of control (=100) | B26
27 | 106 % of control (=100) | B27
28 | 103 % of control (=100) | B28
29 | 106 % of control (=100) | B29
30 | 101 % of control (=100) | B30
